Assay [1] is described as follows: Competitive ELISA of purified antibodies on E1-OVA (55), amphetamine and methamphetamine cross reactivity. It counts as binding. The method, then: (§1) Competitive ELISA was used to assess the presence of anti-Ecstasy-class antibodies in animal sera, hybridoma supernatants, and monoclonal antibody (mAb) samples as well as to estimate the level of antibody cross reactivity to amphetamine (Amph) and methamphetamine (mAmph). Antisera and antibody samples were used at the dilution giving a response of about OD=1 at 650 nm (OD650 nm) in an indirect ELISA. Hybridoma supernatants were diluted 1:2 in PBS. (±)-MDMA, (±)-MDA, (±)-amphetamine, and (±)-methamphetamine were used as inhibitors (Cerilliant Corporation, Round Rock, TX). Microtiter ELISA plates were coated and blocked as described above for indirect ELISA. The inhibitors were serially diluted in PBS. 25 μL of the diluted inhibitor was mixed with 25 μL of fixed appropriate antiserum or antibody sample dilution. The mixture was incubated over the E1-OVA (55) solid phase for 1 h. The plates were washed as described above and the bound antibodies were detected with anti-rabbit or anti-mouse IgG HRP-conjugates and TMB substrate as described above.
(§2) The anti-ecstasy class mAbs were purified from clarified and filtered hybridoma culture supernatants on a recombinant Protein A Sepharose Fast Flow (GE Life Sciences, Boston USA), dialyzed against PBS containing 0.02% sodium azide and stored at 4° C. The purified mAbs were tested for MDA and MDMA reactivity as well as amphetamine (Amph) and methamphetamine (mAmph) cross reactivity in a competitive assay.
(ELISA stands for enzyme-linked immunosorbent assay.)

Assay [2] in a line: Competitive ELISA screening of hybridoma supernatants on E1-OVA (55), inhibitor MDMA. The conditions noted are these: for E1-OVA (55) Binding, OD650 nm +MDMA: hybridoma supernatant in the presence of 10 μg/mL MDMA; for % Inhibition by 10 μg/mL of MDMA: inhibition of mAb/E1-OVA (55) binding. Type of assay: binding. As to the method: as §1
(§3) The supernatants were screened in a competitive ELISA for the presence of anti-ecstasy compound monoclonal antibodies (mAbs) as follows. 25 μL of the hybridoma supernatant was mixed with equal volume of PBS alone or containing 20 μg/mL inhibitor (MDA or MDMA) were incubated for 1 h in the wells of E1-OVA (55) coated ELISA plates. The plates were washed and the presence of bound mAbs were detected using goat anti-mouse IgG (Fc)-HRP conjugate and TMB substrate as described above. The level of inhibition of mAb/E1-OVA (55) binding in the presence of the inhibitor was estimated using a Percent (%) Inhibition calculated by the below formula:
(§4) [formula] • where “OD650 nm w/o Inhibitor” is the binding response of the antibody sample diluted in PBS alone (with no inhibitor), and the “OD650 nm with Inhibitor” is the binding response of the same antibody sample in the presence of 10 μg/mL of inhibitor (i.e., MDA or MDMA).

Assay [3] can be described thus: Competitive ELISA screening of hybridoma supernatants on E1-OVA (55), inhibitor MDA. It counts as binding. The conditions noted are these: for E1-OVA (55) Binding, OD650 nm +MDA: hybridoma supernatant in the presence of 10 μg/mL MDA; for % Inhibition by 10 μg/mL of MDA: inhibition of mAb/E1-OVA (55) binding. The method, then:
as §1, §3, §4

A further assay deals with E1-OVA (55). The assay can be described thus: ELISA binding of hybridoma supernatant to E1-OVA (55) coated plates, without inhibitor. The settings on record: hybridoma supernatant mixed with PBS alone. The method, then:
All ELISA steps were performed at rt. Wells of a Nunc Maxi-Sorp™ flat-bottom ELISA plates (ThermoFisher Scientific, Waltham, MA) were coated with 50 μL E1-OVA (55), E2-OVA (65), and E3-OVA (72) at a concentration of 1 μg/mL in PBS for 1 h. The plates were flicked dried and remaining binding sites were blocked with 200 μL per well of blocking solution (0.5% casein, 0.05% (v/v) Tween 20 in PBS) for one hour. Plates were washed six times with MilliQ water containing 0.05% (v/v) Tween 20 on Biotek 405 LS plate washer equipped with microplate Biostacker 3 (Biotek, Winooski, VT). 50 μL of serially diluted antibody samples (serial dilutions of serum, hybridoma supernatant, or monoclonal antibodies in PBS) were added to each well and incubated for one hour. Unbound antibodies were removed by washing as described above, and 50 μL of secondary goat anti-rabbit IgG HRP or goat anti-mouse IgG (Fc)-HRP conjugate (ThermoFisher Scientific, USA), diluted 1:3,000 in the blocking solution was added to each well for detection bound rabbit or mouse antibody, respectively. Plates were incubated for one hour, washed and 100 μL of TMB substrate (Moss, Pasadena, MD) was added for 15 min to determine bound peroxidase. Optical density (OD) of the samples at 650 nm was measured using an ELISA plate reader (Molecular Devices LLC., San Jose, CA). The titer of each serum sample was designated as the maximum dilution that yielded at least twice the absorbance of the same dilution of the nonimmune control serum.
as §3
[formula] • where “OD650 nm w/o Inhibitor” is the binding response of the antibody sample diluted in PBS alone (with no inhibitor), and the “OD650 nm with Inhibitor” is the binding response of the same antibody sample in the presence of 10 μg/mL of inhibitor (i.e., MDA or MDMA). […]

The nature of assay [4]: Prototype EMIT ecstasy assay, cross-reactivity with amphetamine. It counts as biochemical. The settings on record: conjugate Compound 58; negative urine pool.
Assay [5] can be described thus: Prototype EMIT ecstasy assay, cross-reactivity with methamphetamine. It counts as biochemical. The conditions noted are these: conjugate Compound 58; negative urine pool.
A short description of assay [6]: Competitive ELISA of purified antibodies on E1-OVA (55), MDMA and MDA reactivity. Type of assay: binding. The conditions noted are these: 10,000-0.1 ng/mL range of drug concentration. As to the method: as §1, §2

Residue numbers refer to the chain shown, from its start.

B1: 178K 1F4 mAb: mouse monoclonal antibody raised against E1-KLH (56); IgG2b, κ; heavy chain SEQ ID NO 85, light chain SEQ ID NO 109 (antibody)
heavy: MNFGLSLIFLALILKGVQCEVQLVESGGDLVRPGGSLKLSCAASGFIFTNYVMSWVRQTPDKRLEWVATINSVGRYTYYTDSVKGRLTISRNNAKNTLYLQMNSLKSEDTAIYYCAGGNNLDFWGQGTTLTVSSAKTTPPSVYPLAPGCGDTTGSSVTLGCLVKGYFPESVTVTWNSGSLSSSVHTFPALLQSGLYTMSSSVTVPSSTWLSQTVTCSVAHPASSTTVDKKLEPSGPISTIKPCPPCKECHKCPAPNLEGGPSVFIFPPNIKDVLMISLTPKVTCVVVDVSEDDPDVQISWFVNNVEVHTAQTQTHREDYNSTIRVVSALPIQHQDWMSGKEFKCKVNNKDLPSPIERTISKIKGLVRAPQVYILPPPAEQLSRKDVSLTCLVVGFNPGDISVEWTSNGHTEENYKDTAPILDSDGSYFIYSKLNMKTSKWEKTDSFSCNVRHEGLKNNYLKKTISRSPGK
light: MRFSAQLLGLLVLWIPGSTADIVMTQAAFSNPVTLGTSASISCRSSKSLLHSNGITYLYWYLQKPGQSPQLLIYQMSNLASGVPDRFSSSGSGTDFTLRISRVEAEDVGVYYCGQDLELPYSFGGGTKLEIKRADAAPTVSIFPPSSEQLTSGGASVVCFLNNFYPKDINVKWKIDGSERQNGVLNSWTDQDSKDSTYSMSSTLTLTKDEYERHNSYTCEATHKTSTSPIVKSFNRNEC
With B1, the “cross reactivity in the presence of 1,000 ng/ml of Amph or mAmph” value (from here on “cross reactivity in the presence”) in assay [1] is listed as “do not show any significant cross reactivity”. Further, in assay [2], the “E1-OVA (55) Binding, OD650 nm +MDMA” value is 0.359 OD650 nm and the “% Inhibition by 10 μg/mL of MDMA” value came to 88%. Besides, in assay [3], the “E1-OVA (55) Binding, OD650 nm +MDA” value came to 0.254 OD650 nm and the “% Inhibition by 10 μg/mL of MDA” value is 93%. For the same molecule, the “E1-OVA (55) Binding, OD650 nm w/o inhib” value in the assay with E1-OVA (55) is recorded as 3.012 OD650 nm. The “Concentrations (μg/mL) of Structurally Related Compounds Equivalent to 500 ng/mL MDMA Cutoffs, (+/−) Amph” value (“Concentrations (μg/mL) … (+/−) Amph” for short) in assay [4] was determined as 30 µg/mL. The “Concentrations (μg/mL) of Structurally Related Compounds Equivalent to 500 ng/mL MDMA Cutoffs, (+/−) mAmph” value (“Concentrations (μg/mL) … (+/−) mAmph” below) in assay [5] worked out at 30 µg/mL.

B2: 178H 4B1 mAb: mouse monoclonal antibody raised against E1-KLH (56); IgG2b, κ; heavy chain SEQ ID NO 83, light chain SEQ ID NO 107 (antibody)
heavy: MNFGLSLIFLALILKGLQCEVQLVESGGDLVKPGGSLKLSCAASGFTFSRNVMSWVRQTPDKRLEWVATISSGGVHTYYLDSVKGRFTIFRDNAKNTLYLQMNSLQSEDTAMYYCAAGNALDYWGQGTSVTVSSAKTTPPSVYPLAPGCGDTTGSSVTLGCLVKGYFPESVTVTWNSGSLSSSVHTFPALLQSGLYTMSSSVTVPSSTWPSQTVTCSVAHPASSTTVDKKLEPSGPISTINPCPPCKECHKCPAPNLEGGPSVFIFPPNIKDVLMISLTPKVTCVVVDVSEDDPDVRISWFVNNVEVHTAQTQTHREDYNSTIRVVSALPIQHQDWMSGKEFKCKVNNKDLPSPIERTISKIKGLVRAPQVYILPPPAEQLSRKDVSLTCLVVGFNPGDISVEWTSNGHTEENYKDTAPVLDSDGSYFIYSKLDIKTSKWEKTDSFSCNVRHEGLKNYYLKKTISRSPGK
light: B1 light with V23M, A39G, G125S
Regarding B2, in assay [2], the “E1-OVA (55) Binding, OD650 nm +MDMA” value was 0.093 OD650 nm and the “% Inhibition by 10 μg/mL of MDMA” value is recorded as 98%. The “relative sensitivity to MDMA and MDA in competitive ELISA” value in assay [6] is recorded as “bind MDMA stronger than MDA”. Moreover, in assay [3], the “E1-OVA (55) Binding, OD650 nm +MDA” value is reported as 0.105 OD650 nm and the “% Inhibition by 10 μg/mL of MDA” value was 97%. Moreover, in the assay with E1-OVA (55), the “E1-OVA (55) Binding, OD650 nm w/o inhib” value is on record as 3.164 OD650 nm. Besides, in assay [4], the “Concentrations (μg/mL) … (+/−) Amph” value was 40 µg/mL. In addition, the “Concentrations (μg/mL) … (+/−) mAmph” value in assay [5] lay in the range of 40 to 50 µg/mL.

B3: 178K 4E11 mAb: mouse monoclonal antibody raised against E1-KLH (56); IgG2b, κ; heavy chain SEQ ID NO 89, light chain SEQ ID NO 113 (antibody)
heavy: B1 heavy with R32K, I47T, T49S, K62M, V73G, T80P, L87F, N92D, F123Y
light: B1 light with H51Q, S52R, Q75R, S122T
Consider B3, for which the “cross reactivity in the presence” value in assay [1] is “do not show any significant cross reactivity”. In assay [2], the “E1-OVA (55) Binding, OD650 nm +MDMA” value is on record as 0.088 OD650 nm and the “% Inhibition by 10 μg/mL of MDMA” value is recorded as 95%. Further, in assay [3], the “E1-OVA (55) Binding, OD650 nm +MDA” value was 0.091 OD650 nm and the “% Inhibition by 10 μg/mL of MDA” value is on record as 95%. In addition, in the assay with E1-OVA (55), the “E1-OVA (55) Binding, OD650 nm w/o inhib” value stood at 1.930 OD650 nm. Besides, the “Concentrations (μg/mL) … (+/−) Amph” value in assay [4] fell in the range of 40 to 45 µg/mL. Besides, in assay [5], the “Concentrations (μg/mL) … (+/−) mAmph” value lay within 50 to 60 µg/mL.

B4: 178K 1E11 mAb: mouse monoclonal antibody raised against E1-KLH (56); IgG2b, κ; heavy chain SEQ ID NO 183, light chain SEQ ID NO 185 (antibody)
heavy: MNFGLSLIFLALILKGVQCEVQLVESGGDFVKPGGSLKLSCAASGFTFSNYVMSWVRQTPDKRLEWVATINSGGRYTYYPDSVKGRFTISRDNAKNTLYLQMNSLKSDDTAIYYCSGGNYLDYWGQGTTLTVSSAKTTPPSVYPLAPGCGDTTGSSVTLGCLVKGYFPESVTVTWNSGSLSSSVHTFPALLQSGLYTMSSSVTVPSSTWLSQTVTCSVAHPASSTTVDKKLEPSGPISTIKPCPPCKECHKCPAPNLEGGPSVFIFPPNIKDVLMISLTPKVTCVVVDVSEDDPDVQISWFVNNVEVHTAQTQTHREDYNSTIRVVSALPIQHQDWMSGKEFKCKVNNKDLPSPIERTISKIKGLVRAPQVYILPPPAEQLSRKDVSLTCLVVGFNPGDISVEWTSNGHTEENYKDTAPILDSDGSYFIYSKLNMKTSKWEKTDSFSCNVRHEGLKNNYLKKTISRSPGK
light: B1 light with H51Q, S52R, Y59H, Q75R, D85E, S122T
Consider B4, for which, in assay [1], the “cross reactivity in the presence” value is listed as “do not show any significant cross reactivity”. Besides, in assay [2], the “E1-OVA (55) Binding, OD650 nm +MDMA” value amounted to 0.301 OD650 nm and the “% Inhibition by 10 μg/mL of MDMA” value amounted to 91%. Besides, in assay [3], the “E1-OVA (55) Binding, OD650 nm +MDA” value amounted to 0.316 OD650 nm and the “% Inhibition by 10 μg/mL of MDA” value is on record as 91%. For the same molecule, the “E1-OVA (55) Binding, OD650 nm w/o inhib” value in the assay on E1-OVA (55) was 3.390 OD650 nm.

Values taken from patent US20260234121A1, “DERIVATIVES, IMMUNOGENS, AND ANTIBODIES AND USE OF THE SAME IN DETECTION OF ECSTASY-CLASS COMPOUNDS” (Siemens Healthcare Diagnostics Inc., priority 2023, published 2026).
